Measurements reported in PMC4391263, “Alpers disease mutations in human DNA polymerase gamma cause catalytic defects in mitochondrial DNA replication by distinct mechanisms”.

How the values were obtained:
[1] = target: Pol-γA wild-type (exo+);Pol-γB accessory subunit (Homo sapiens;Homo sapiens, UniProt P54098;Q9UHN1 26-1239;26-485, |); experiment: global fit of processive polymerization time course; 12.5 mM MgCl2; dATP, dGTP, TTP 5 μM each; 12.5 mM Mg2+, 37 °C; enzyme and DNA preincubated, rapid quench flow; buffer, salt and pH not given in the material. Table 1 WT Kd (9.9 ± 2.1 nM) is asterisked as apparently earlier data and not listed; conditions: protein: recombinant;recombinant; tags: ;; copies: 1;2; 5' overhang 48 nt on template, recessed primer 3' end
Chain of Pol-γA wild-type (exo+);Pol-γB accessory subunit (P54098 26-1239, chain 1 of 2): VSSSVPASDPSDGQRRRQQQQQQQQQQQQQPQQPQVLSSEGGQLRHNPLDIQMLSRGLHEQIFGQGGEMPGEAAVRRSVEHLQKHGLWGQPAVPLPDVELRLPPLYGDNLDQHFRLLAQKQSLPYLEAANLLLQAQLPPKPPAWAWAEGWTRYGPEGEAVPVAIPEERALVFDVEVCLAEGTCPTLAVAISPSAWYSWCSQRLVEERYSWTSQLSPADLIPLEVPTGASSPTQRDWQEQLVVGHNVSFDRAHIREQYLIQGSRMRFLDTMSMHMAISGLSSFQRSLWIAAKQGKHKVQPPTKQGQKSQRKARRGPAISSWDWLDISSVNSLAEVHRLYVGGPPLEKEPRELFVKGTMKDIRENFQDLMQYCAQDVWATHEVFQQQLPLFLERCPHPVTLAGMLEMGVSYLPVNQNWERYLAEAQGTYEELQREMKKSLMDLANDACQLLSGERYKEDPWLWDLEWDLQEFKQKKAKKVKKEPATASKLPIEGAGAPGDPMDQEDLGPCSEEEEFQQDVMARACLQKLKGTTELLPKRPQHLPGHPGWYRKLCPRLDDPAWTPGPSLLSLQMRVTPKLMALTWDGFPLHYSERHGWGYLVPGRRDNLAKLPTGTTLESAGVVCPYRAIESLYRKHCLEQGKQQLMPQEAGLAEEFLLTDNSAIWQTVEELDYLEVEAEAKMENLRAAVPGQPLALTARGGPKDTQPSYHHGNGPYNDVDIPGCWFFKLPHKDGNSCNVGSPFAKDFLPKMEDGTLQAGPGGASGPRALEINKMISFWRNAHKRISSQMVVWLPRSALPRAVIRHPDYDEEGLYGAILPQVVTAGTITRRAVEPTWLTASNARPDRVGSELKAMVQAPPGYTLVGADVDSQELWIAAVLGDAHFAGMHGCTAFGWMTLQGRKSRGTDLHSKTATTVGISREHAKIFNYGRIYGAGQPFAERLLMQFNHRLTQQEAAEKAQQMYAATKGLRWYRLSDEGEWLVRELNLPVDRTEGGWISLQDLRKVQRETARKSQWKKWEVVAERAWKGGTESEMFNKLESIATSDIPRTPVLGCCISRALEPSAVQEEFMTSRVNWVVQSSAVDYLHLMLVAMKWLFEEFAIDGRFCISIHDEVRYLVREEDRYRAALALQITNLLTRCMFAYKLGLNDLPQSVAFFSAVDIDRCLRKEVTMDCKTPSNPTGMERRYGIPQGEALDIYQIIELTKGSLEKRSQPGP
Chain of Pol-γA wild-type (exo+);Pol-γB accessory subunit (Q9UHN1 26-485, chain 2 of 2): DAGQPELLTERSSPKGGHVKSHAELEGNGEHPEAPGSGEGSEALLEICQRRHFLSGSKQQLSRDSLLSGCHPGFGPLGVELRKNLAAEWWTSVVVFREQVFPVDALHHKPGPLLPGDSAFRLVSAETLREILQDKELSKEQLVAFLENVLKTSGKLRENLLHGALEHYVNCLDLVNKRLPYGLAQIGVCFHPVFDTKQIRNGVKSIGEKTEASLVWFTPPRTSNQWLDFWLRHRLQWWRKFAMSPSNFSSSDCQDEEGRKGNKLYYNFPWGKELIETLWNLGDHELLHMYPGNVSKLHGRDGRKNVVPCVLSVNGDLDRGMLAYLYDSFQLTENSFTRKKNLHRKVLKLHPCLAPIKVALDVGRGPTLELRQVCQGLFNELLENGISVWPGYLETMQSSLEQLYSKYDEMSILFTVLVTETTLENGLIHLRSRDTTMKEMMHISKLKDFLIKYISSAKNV

[2] = target: T1, Pol-γA P1073L (exo+);Pol-γB accessory subunit (Homo sapiens;Homo sapiens, UniProt P54098;Q9UHN1 26-1239;26-485, P1073L|); experiment: global fit of processive polymerization time course; 12.5 mM MgCl2; dATP, dCTP, TTP 5 μM each; 12.5 mM Mg2+, 37 °C; enzyme and DNA preincubated, rapid quench flow; buffer, salt and pH not given in the material. Table 1 WT Kd (9.9 ± 2.1 nM) is asterisked as apparently earlier data and not listed; conditions: protein: recombinant;recombinant; tags: ;; copies: 1;2; label: 5'-32P primer; 5' overhang 20 nt on template, recessed primer 3' end
T1 sequence (P54098 26-1239 P1073L, chain 1 of 2): as the sequence (P54098 26-1239, chain 1 of 2) above, with P1048L counted along it
T1 sequence (Q9UHN1 26-485, chain 2 of 2): as the sequence (Q9UHN1 26-485, chain 2 of 2) above

[3] = target: Pol-γA S305R (exo+);Pol-γB accessory subunit (Homo sapiens;Homo sapiens, UniProt P54098;Q9UHN1 26-1239;26-485, S305R|); experiment: global fit of pre-steady-state single-nucleotide incorporation kinetics (quench flow, DNA titration); 12.5 mM Mg2+, dATP; 12.5 mM Mg2+, 37 °C; enzyme and DNA preincubated, rapid quench flow; buffer, salt and pH not given in the material. Table 1 WT Kd (9.9 ± 2.1 nM) is asterisked as apparently earlier data and not listed; conditions: protein: recombinant;recombinant; tags: ;; copies: 1;2; label: 5'-32P primer; 5' overhang 20 nt on template, recessed primer 3' end
Chain of Pol-γA S305R (exo+);Pol-γB accessory subunit (P54098 26-1239 S305R, chain 1 of 2): as the sequence (P54098 26-1239, chain 1 of 2) above, with S280R counted along it
Chain of Pol-γA S305R (exo+);Pol-γB accessory subunit (Q9UHN1 26-485, chain 2 of 2): as the sequence (Q9UHN1 26-485, chain 2 of 2) above

[4] = target: T1, Pol-γA P1073L (exo+);Pol-γB accessory …; experiment: pre-steady-state single-nucleotide incorporation kinetics; 12.5 mM Mg2+, dATP; 12.5 mM Mg2+, 37 °C; enzyme and DNA preincubated, rapid quench flow; buffer, salt and pH not given in the material. Table 1 WT Kd (9.9 ± 2.1 nM) is asterisked as apparently earlier data and not listed; conditions: protein: recombinant;recombinant; tags: ;; copies: 1;2; label: 5'-32P primer; 5' overhang 20 nt on template, recessed primer 3' end

B1: 25-mer/73-mer primer-template (dsDNA)
DNA 1: GCCTCGCAGCCGTCCAACCAACTCA
DNA 2: CCCCACCTGCAGGCATGCAAGCTTGGCACTGGCCGTCGTTTTACCTCTTGAGTTGGTTGGACGGCTGCGAGGC
With B1 the Kd [1] was 15 nM.

B2: 25-mer/45-mer primer-template (dsDNA)
DNA 1: GCCTCGCAGCCGTCCAACCAACTCA
DNA 2: GGACGGCATTGGATCGAGGTTGAGTTGGTTGGACGGCTGCGAGGC
B2 showed a Kd [2] of 15 nM, a Kd [3] of 100 ± 4 nM and a Kd [4] of 10.2 ± 1.2 nM.
